We go through two molecules from US20230250154A1 (CYTONICS, published 2023).

Some targets named below: Elastase; bovine trypsin (bovine, UniProt P00760 24-246); chymotrypsin; MMP9 (human, UniProt P14780 107-707, limits assumed); MMP13 (human, UniProt P45452 104-471, limits assumed); MMP12 (human, UniProt P39900 106-470, limits assumed); MMP8 (human, UniProt P22894 101-467, limits assumed); MMP3 (human, UniProt P08254 100-477, limits assumed).
Common to all, as to assay: cell-based or functional assay
For another test, the target named is T1, Cathepsin G (UniProt P08311 21-244).
T1 sequence (looked up): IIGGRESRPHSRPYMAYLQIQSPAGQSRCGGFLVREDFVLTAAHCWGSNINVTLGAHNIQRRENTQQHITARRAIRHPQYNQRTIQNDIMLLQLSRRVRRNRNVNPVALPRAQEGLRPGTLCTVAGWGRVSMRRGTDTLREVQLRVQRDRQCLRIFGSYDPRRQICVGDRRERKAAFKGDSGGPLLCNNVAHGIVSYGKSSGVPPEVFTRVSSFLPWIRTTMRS

A further test addresses T2, MMP1 (human, UniProt P03956 100-469, limits assumed).
T2 sequence (looked up): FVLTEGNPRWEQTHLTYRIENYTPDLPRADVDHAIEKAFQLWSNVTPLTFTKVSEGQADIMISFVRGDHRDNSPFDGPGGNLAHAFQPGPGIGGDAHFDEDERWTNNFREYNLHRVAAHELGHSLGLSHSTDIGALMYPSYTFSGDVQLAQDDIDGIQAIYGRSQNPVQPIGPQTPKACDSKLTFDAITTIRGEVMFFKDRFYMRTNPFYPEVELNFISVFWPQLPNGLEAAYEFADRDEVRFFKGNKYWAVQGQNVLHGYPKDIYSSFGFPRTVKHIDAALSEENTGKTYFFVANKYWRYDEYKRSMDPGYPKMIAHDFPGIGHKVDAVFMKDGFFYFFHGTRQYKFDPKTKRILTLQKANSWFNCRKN

In another test the target is T3, MMP2 (human, UniProt P08253 110-660, limits assumed).
T3 sequence (looked up): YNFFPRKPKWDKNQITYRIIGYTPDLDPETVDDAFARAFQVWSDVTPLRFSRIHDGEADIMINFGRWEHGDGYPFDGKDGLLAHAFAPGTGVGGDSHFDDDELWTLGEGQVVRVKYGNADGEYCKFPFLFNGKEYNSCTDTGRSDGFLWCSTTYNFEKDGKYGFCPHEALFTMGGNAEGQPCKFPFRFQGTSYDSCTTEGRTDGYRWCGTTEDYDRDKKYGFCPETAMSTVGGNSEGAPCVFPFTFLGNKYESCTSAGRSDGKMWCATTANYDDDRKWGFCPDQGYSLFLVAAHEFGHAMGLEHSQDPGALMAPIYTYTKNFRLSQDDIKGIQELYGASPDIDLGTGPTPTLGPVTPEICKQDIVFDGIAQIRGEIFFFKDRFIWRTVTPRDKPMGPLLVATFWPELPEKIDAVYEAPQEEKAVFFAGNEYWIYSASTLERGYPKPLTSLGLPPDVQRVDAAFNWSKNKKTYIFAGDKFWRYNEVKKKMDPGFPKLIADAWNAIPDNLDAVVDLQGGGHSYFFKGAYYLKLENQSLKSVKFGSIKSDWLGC

In a further test the target is T4, ADAMTS5 (human, UniProt Q9UNA0 262-622, limits assumed).
T4 sequence (looked up): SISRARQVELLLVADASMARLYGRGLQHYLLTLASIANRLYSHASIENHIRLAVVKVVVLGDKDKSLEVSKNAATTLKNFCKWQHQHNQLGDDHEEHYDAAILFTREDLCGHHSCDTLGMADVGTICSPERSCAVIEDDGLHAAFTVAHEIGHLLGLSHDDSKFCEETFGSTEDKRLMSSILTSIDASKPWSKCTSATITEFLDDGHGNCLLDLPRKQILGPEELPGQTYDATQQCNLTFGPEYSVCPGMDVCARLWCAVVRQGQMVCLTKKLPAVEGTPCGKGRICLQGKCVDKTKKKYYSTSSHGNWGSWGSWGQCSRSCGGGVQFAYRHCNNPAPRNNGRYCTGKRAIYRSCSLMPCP

In another test the target is T5, ADAMTS4 (human, UniProt O75173 213-685, limits assumed).
T5 sequence (looked up): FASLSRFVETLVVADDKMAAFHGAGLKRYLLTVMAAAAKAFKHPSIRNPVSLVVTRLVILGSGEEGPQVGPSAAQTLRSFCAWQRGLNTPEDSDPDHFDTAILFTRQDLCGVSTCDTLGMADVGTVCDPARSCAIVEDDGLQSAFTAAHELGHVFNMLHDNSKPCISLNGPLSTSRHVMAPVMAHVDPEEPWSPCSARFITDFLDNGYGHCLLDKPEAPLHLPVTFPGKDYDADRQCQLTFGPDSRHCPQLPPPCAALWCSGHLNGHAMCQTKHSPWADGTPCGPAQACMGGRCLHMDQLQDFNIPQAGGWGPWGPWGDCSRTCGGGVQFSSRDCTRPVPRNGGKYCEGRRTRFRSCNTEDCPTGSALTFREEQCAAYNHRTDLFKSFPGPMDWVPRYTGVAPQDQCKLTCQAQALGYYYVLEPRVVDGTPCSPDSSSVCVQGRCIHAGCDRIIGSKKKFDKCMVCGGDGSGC

Sequence of MMP12 (P39900 106-470 limits assumed): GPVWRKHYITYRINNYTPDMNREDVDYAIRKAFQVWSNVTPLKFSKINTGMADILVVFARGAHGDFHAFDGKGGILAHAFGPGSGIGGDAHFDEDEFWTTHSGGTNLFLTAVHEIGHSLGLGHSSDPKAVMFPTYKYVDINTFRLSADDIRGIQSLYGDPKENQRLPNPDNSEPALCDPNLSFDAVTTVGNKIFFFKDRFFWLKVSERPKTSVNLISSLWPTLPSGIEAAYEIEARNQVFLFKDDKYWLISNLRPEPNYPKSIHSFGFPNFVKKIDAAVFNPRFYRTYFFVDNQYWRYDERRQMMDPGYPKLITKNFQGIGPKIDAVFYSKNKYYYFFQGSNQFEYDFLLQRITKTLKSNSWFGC
Sequence of bovine trypsin (P00760 24-246): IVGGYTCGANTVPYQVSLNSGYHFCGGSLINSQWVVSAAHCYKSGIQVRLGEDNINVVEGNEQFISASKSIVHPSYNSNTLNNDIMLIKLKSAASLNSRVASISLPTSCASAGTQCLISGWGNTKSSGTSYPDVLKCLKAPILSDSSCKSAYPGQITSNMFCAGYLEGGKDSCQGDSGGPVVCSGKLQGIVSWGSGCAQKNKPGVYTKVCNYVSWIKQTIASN
Sequence of MMP8 (P22894 101-467 limits assumed): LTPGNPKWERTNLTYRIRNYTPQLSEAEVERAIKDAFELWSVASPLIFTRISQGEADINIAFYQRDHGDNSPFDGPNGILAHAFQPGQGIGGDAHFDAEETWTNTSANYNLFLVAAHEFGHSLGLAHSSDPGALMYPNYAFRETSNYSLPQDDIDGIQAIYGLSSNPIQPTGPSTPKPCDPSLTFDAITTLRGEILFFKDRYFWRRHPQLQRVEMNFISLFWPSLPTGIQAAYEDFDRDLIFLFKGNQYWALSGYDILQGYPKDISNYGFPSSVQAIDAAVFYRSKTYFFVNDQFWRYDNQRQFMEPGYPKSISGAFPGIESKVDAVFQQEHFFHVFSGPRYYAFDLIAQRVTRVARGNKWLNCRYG
Sequence of MMP9 (P14780 107-707 limits assumed): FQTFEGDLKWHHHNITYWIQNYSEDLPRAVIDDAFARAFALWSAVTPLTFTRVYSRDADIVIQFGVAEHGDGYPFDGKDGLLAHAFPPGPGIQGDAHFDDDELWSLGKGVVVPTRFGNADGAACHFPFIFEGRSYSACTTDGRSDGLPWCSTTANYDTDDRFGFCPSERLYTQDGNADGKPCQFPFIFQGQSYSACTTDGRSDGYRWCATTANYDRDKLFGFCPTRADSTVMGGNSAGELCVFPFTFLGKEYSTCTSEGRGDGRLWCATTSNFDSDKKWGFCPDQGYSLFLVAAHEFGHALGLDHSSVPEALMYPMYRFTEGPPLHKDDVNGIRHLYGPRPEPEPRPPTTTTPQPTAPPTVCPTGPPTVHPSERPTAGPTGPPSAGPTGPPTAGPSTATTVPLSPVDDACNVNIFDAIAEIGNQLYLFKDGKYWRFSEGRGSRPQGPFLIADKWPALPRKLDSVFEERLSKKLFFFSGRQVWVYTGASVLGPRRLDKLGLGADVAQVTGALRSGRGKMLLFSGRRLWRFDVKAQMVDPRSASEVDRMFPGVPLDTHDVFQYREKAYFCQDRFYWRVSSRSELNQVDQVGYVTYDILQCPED
Sequence of MMP3 (P08254 100-477 limits assumed): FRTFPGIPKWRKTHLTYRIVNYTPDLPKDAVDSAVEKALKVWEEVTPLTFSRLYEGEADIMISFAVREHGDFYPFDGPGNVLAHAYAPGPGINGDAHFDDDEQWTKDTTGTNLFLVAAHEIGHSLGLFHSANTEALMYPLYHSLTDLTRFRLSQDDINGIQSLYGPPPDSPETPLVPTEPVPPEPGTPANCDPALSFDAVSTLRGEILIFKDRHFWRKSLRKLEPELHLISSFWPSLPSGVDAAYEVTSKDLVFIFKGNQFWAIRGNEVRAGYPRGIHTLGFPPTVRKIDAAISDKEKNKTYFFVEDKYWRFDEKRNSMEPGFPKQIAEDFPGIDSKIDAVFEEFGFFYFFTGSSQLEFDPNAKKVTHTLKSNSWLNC

B1: Variant A2M, bait region SEQ ID NO 126 (other)
chain: SVSGKPQYMVLVPSLLHTETTEKGCVLLSYLNETVTVSASLESVRGNRSLFTDLEAENDVLHCVAFAVPKSSSNEEVMFLTVQVKGPTQEFKKRTTVMVKNEDSLVFVQTDKSIYKPGQTVKFRVVSMDENFHPLNELIPLVYIQDPKGNRIAQWQSFQLEGGLKQFSFPLSSEPFQGSYKVVVQKKSGGRTEHPFTVEEFVLPKFEVQVTVPKIITILEEEMNVSVCGLYTYGKPVPGHVTVSICRKYSDASDCHGEDSQAFCEKFSGQLNSHGCFYQQVKTKVFQLKRKEYEMKLHTEAQIQEEGTVVELTGRQSSEITRTITKLSFVKVDSHFRQGIPFFGQVRLVDGKGVPIPNKVIFIRGNEANYYSNATTDEHGLVQFSINTTNVMGTSLTVRVNYKDRSPCYGYQWVSEEHEEAHHTAYLVFSPSKSFVHLEPMSHELPCGHTQTVQAHYILNGGTLLGLKKLSFYYLIMAKGGIVRTGTHGLLVKQEDMKGHFSISIPVKSDIAPVARLLIYAVLPTGDVIGDSAKYDVENCLANKVDLSFSPSQSLPASHAHLRVTAAPQSVCALRAVDQSVLLMKPDAELSASSVYNLLPEKDLTGFPGPLNDQDDEDCINRHNVYINGITYTPVSSTNEKDMYSFLEDMGLKAFTNSKIRKPKMCPQLEQYEMHGPEGEGEGEGIPENFFGVSEDLVVQISELEGRGSVEEPHTKLRKYFPETWIWDLVVVNSAGVAEVGVTVPDTITEWKAGAFCLSEDAGLGISSTASLRAFQPFFVELTMPYSVIRGEAFTLKATVLNYLPKCIRVSVQLEASPAFLAVPVEKEQAPHCICANGRQTVSWAVTPKSLGNVNFTVSAEALESQELCGTEVPSVPEHGRKDTVIKPLLVEPEGLEKETTFNSLLCPSGGEVSEELSLKLPPNVVEESARASVSVLGDILGSAMQNTQNLLQMPYGCGEQNMVLFAPNIYVLDYLNETQQLTPEIKSKAIGYLNTGYQRQLNYKHYDGSYSTFGERYGRNQGNTWLTAFVLKTFAQARAYIFIDEAHITQALIWLSQRQKDNGCFRSSGSLLNNAIKGGVEDEVTLSAYITIALLEIPLTVTHPVVRNALFCLESAWKTAQEGDHGSHVYTKALLAYAFALAGNQDKRKEVLKSLNEEAVKKDNSVHWERPQKPKAPVGHFYEPQAPSAEVEMTSYVLLAYLTAQPAPTSEDLTSATNIVKWITKQQNAQGGFSSTQDTVVALHALSKYGAATFTRTGKAAQVTIQSSGTFSSKFQVDNNNRLLLQQVSLPELPGEYSMKVTGEGCVYLQTSLKYNILPEKEEFPFALGVQTLPQTCDEPKAHTSFQISLSVSYTGSRSASNMAIVDVKMVSGFIPLKPTVKMLERSNHVSRTEVSSNHVLIYLDKVSNQTLSLFFTVLQDVPVRDLKPAIVKVYDYYETDEFAIAEYNAPCSKDLGNADYKDDDDKGASHHHHHH
As for B1, the “Protease Inhibition (% of WT)” value with Elastase was 105 % of WT; in the test with bovine trypsin, 86 % of WT; with Cathepsin G, 311 % of WT; in the test with chymotrypsin, 50 % of WT; with MMP9 it was 500 % of WT; with MMP13, 117 % of WT. In addition, the “Protease Inhibition (% of WT)” value in the test with MMP1 is 379 % of WT; with MMP2, 61 % of WT; with MMP12, 132 % of WT; with ADAMTS5, 480 % of WT; with ADAMTS4, 115 % of WT; with MMP8 it was 163 % of WT. In addition, the “Protease Inhibition (% of WT)” value with MMP3 was 130 % of WT.

B2: Variant A2M, bait region SEQ ID NO 90 (other)
chain: SVSGKPQYMVLVPSLLHTETTEKGCVLLSYLNETVTVSASLESVRGNRSLFTDLEAENDVLHCVAFAVPKSSSNEEVMFLTVQVKGPTQEFKKRTTVMVKNEDSLVFVQTDKSIYKPGQTVKFRVVSMDENFHPLNELIPLVYIQDPKGNRIAQWQSFQLEGGLKQFSFPLSSEPFQGSYKVVVQKKSGGRTEHPFTVEEFVLPKFEVQVTVPKIITILEEEMNVSVCGLYTYGKPVPGHVTVSICRKYSDASDCHGEDSQAFCEKFSGQLNSHGCFYQQVKTKVFQLKRKEYEMKLHTEAQIQEEGTVVELTGRQSSEITRTITKLSFVKVDSHFRQGIPFFGQVRLVDGKGVPIPNKVIFIRGNEANYYSNATTDEHGLVQFSINTTNVMGTSLTVRVNYKDRSPCYGYQWVSEEHEEAHHTAYLVFSPSKSFVHLEPMSHELPCGHTQTVQAHYILNGGTLLGLKKLSFYYLIMAKGGIVRTGTHGLLVKQEDMKGHFSISIPVKSDIAPVARLLIYAVLPTGDVIGDSAKYDVENCLANKVDLSFSPSQSLPASHAHLRVTAAPQSVCALRAVDQSVLLMKPDAELSASSVYNLLPEKDLTGFPGPLNDQDDEDCINRHNVYINGITYTPVSSTNEKDMYSFLEDMGLKAFTNSKIRKPKMCPQLEQYEMHGPEGLRVGSELEGRGSFYESDVMGRGHARLVHVEEPHTKLLRKYFPETWIWDLVVVNSAGVAEVGVTVPDTITEWKAGAFCLSEDAGLGISSTASLRAFQPFFVELTMPYSVIRGEAFTLKATVLNYLPKCIRVSVQLEASPAFLAVPVEKEQAPHCICANGRQTVSWAVTPKSLGNVNFTVSAEALESQELCGTEVPSVPEHGRKDTVIKPLLVEPEGLEKETTFNSLLCPSGGEVSEELSLKLPPNVVEESARASVSVLGDILGSAMQNTQNLLQMPYGCGEQNMVLFAPNIYVLDYLNETQQLTPEIKSKAIGYLNTGYQRQLNYKHYDGSYSTFGERYGRNQGNTWLTAFVLKTFAQARAYIFIDEAHITQALIWLSQRQKDNGCFRSSGSLLNNAIKGGVEDEVTLSAYITIALLEIPLTVTHPVVRNALFCLESAWKTAQEGDHGSHVYTKALLAYAFALAGNQDKRKEVLKSLNEEAVKKDNSVHWERPQKPKAPVGHFYEPQAPSAEVEMTSYVLLAYLTAQPAPTSEDLTSATNIVKWITKQQNAQGGFSSTQDTVVALHALSKYGAATFTRTGKAAQVTIQSSGTFSSKFQVDNNNRLLLQQVSLPELPGEYSMKVTGEGCVYLQTSLKYNILPEKEEFPFALGVQTLPQTCDEPKAHTSFQISLSVSYTGSRSASNMAIVDVKMVSGFIPLKPTVKMLERSNHVSRTEVSSNHVLIYLDKVSNQTLSLFFTVLQDVPVRDLKPAIVKVYDYYETDEFAIAEYNAPCSKDLGNADYKDDDDKGASHHHHHH
On to B2, for which the “Protease Inhibition (% of WT)” value is 550 % of WT with Elastase; 100 % of WT with bovine trypsin; 80 % of WT with chymotrypsin; 100 % of WT with MMP9; 700 % of WT with MMP13; 50 % of WT in the test with MMP1. Also, the “Protease Inhibition (% of WT)” value with MMP2 was 110 % of WT; in the test with MMP12 it was 100 % of WT; in the test with ADAMTS5 it was 350 % of WT; in the test with ADAMTS4, 70 % of WT; with MMP8 it was 110 % of WT; in the test with MMP3 it was 110 % of WT.
